According to patent publication US20250129150A1 (APOGEE THERAPEUTICS, published 2025):
“And” between values parts separate entries of the source, which are not always exact repeats. Equal values may be shown once.

T1: Recombinant Cynomolgus IL-13 Protein, His Tag (SINO BIOLOGICAL, Cat. 11057-C07H) (cynomolgus monkey, UniProt Q5I6E4 19-132 (Macaca thibetana entry))
T1 construct: also called Cyno IL-13; cynomolgus monkey IL-13
T1 chain: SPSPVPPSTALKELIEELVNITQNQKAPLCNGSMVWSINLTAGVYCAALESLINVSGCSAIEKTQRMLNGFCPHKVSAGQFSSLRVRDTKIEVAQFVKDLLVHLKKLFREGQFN


Columns and labels:
hIL-13 [1] = target: T2, hIL-13 (human, UniProt P35225 35-146, limits assumed); test: cell-based or functional assay
biotinylated hIL-13 = biotinylated hIL-13 (human, UniProt P35225 35-146, limits assumed, biotinylated (site not stated)); test: FACS; blockade of biotinylated hIL-13 (0.05 ug/mL) binding to HEK293 cells expressing hIL-13Rα1/hIL-4Rα
Protocol: Briefly, HEK293 previously transduced to stably express both hIL-13Rα and hIL-4Rα were cultured and harvested. Cells were seeded at 200,000 cells in 100 uL per well. Cells were washed and the supernatant was discarded. […] The cells were stained in this mixture at 4° C. for 1 hour. […] Cells were incubated at 4° C. for 1 hour, protected from light. Cells were then washed and the median fluorescence intensity (MFI) of cells in each well were recorded by FACS using a BD FACSCanto II. Subsequent data were analyzed using GraphPad Prism.

hIL-13 [2] = target: T2, hIL-13; test: ELISA
hIL-13 [3] = target: T2, hIL-13; test: cell-based or functional assay; remark: listed apart in the source
hIL-13 [4] = target: T2, hIL-13; test: cell-based or functional assay; remark: listed apart in the source
hIL-13 [5] = target: T2, hIL-13; test: cell-based or functional assay; remark: listed apart in the source
[6] = target: T1, Recombinant Cynomolgus IL-13 Protein, …; test: SPR (Biacore 8K), mAb captured on Protein G chip, IL-13 as analyte
Protocol: (§1) Samples were injected in a multi-cycle manner over freshly captured mAb, by regenerating the capture surfaces with injection of glycine pH 1.5 for 30 sec at a flow rate of 30 μL/min. The data was processed and analyzed with Biacore Insight Evaluation Software Version 2.0.15.12933 (GE Healthcare) as follows. […] The responses from the two buffer blank injections were then subtracted from the reference subtracted data (2-1) to yield double-referenced data, which were fit to an 1:1 binding model to determine the apparent association (ka) and dissociation rate constants (kd). Their ratio provided the apparent equilibrium dissociation constant or affinity constant (KD=kd/ka).

[7] = target: T3, Recombinant Human IL-13 Protein, His Tag (Acro Cat. IL3-H52H4) (human, UniProt P35225 35-146); test: as above
T3 construct: Bought protein; also called Hu IL-13; not shown: His Tag
Protocol: as §1

T3 sequence (P35225 other isoform, or with tags, fused parts or gaps limits assumed): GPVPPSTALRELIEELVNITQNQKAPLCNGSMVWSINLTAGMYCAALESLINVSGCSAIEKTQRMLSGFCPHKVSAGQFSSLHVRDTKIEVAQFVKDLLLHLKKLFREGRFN
T2 sequence (P35225 other isoform, or with tags, fused parts or gaps limits assumed): as above
biotinylated hIL-13, sequence (P35225 other isoform, or with tags, fused parts or gaps limits assumed): as above

Binder	TARC Release IC50 (A549 cells) (hIL-13 [1])	IC50 (biotinylated hIL-13) [pM]	Kd (hIL-13 [2]) [pM]	TARC Inhibition IC50 (A549 cells) (hIL-13 [3]) [pM]	pSTAT6 Inhibition IC50 (HT-29 cells) (hIL-13 [4]) [nM]	TF-1 Proliferation Inhibition IC50 (hIL-13 [5]) [pM]	Kd [6] [pM]	Kd [7] [pM]
Construct 15 (antibody, human IgG1, kappa) heavy: EVQLQESGPGLVKPSETLSLTCTVSGFSLNAYSVNWIRQPPGKGLEWLGMIWGDGKIVYNSALKSRLTISKDSSKNQVSLKLSSVTAADTAVYYCAGDGYYPYAMDNWGQGTTVTVSSASTKGPSVFPLAPSSKSTSGGTAALGCLVKDYFPEPVTVSWNSGALTSGVHTFPAVLQSSGLYSLSSVVTVPSSSLGTQTYICNVNHKPSNTKVDKKVEPKSCDKTHTCPPCPAPELAGAPSVFLFPPKPKDTLYITREPEVTCVVVDVSHEDPEVKFNWYVDGVEVHNAKTKPREEQYNSTYRVVSVLTVLHQDWLNGKEYKCKVSNKALPAPIEKTISKAKGQPREPQVYTLPPSRDELTKNQVSLTCLVKGFYPSDIAVEWESNGQPENNYKTTPPVLDSDGSFFLYSKLTVDKSRWQQGNVFSCSVMHEALHNHYTQKSLSLSPG light: DIQLTQSPSSLSASVGDRVTITCRASKSVDSYGNSFMHWYQQKPGKAPKLLIYLASNLESGVPSRFSGSGSGTDFTLTISSLQPEDFATYYCQQNNEDPRTFGGGTKVEIKRTVAAPSVFIFPPSDEQLKSGTASVVCLLNNFYPREAKVQWKVDNALQSGNSQESVTEQDSKDSTYSLSSTLTLSKADYEKHKVYACEVTHQGLSSPVTKSFNRGEC	900 pM	–	–	–	–	–	–	–
Construct 98 (antibody, human IgG1, kappa) heavy: EVQLLESGGGLVQPGGSLRLSCAASGFSLNAYSVNWVRQAPGKGLEWLGMIWGDGKIVYNSALKSRLTISKDSSKNTVYLQMNSLRAEDTAVYYCAGDGYYPYAMDNWGQGTTVTVSSASTKGPSVFPLAPSSKSTSGGTAALGCLVKDYFPEPVTVSWNSGALTSGVHTFPAVLQSSGLYSLSSVVTVPSSSLGTQTYICNVNHKPSNTKVDKKVEPKSCDKTHTCPPCPAPELAGAPSVFLFPPKPKDTLYITREPEVTCVVVDVSHEDPEVKFNWYVDGVEVHNAKTKPREEQYNSTYRVVSVLTVLHQDWLNGKEYKCKVSNKALPAPIEKTISKAKGQPREPQVYTLPPSRDELTKNQVSLTCLVKGFYPSDIAVEWESNGQPENNYKTTPPVLDSDGSFFLYSKLTVDKSRWQQGNVFSCSVMHEALHNHYTQKSLSLSPG light: DIQLTQSPSSLSASVGDRVTITCRASKSVDSYGNSFMHWYQQKPGKAPKLLIYLASELESGVPSRFSGSGSGTDFTLTISSLQPEDFATYYCQQNNEDPRTFGGGTKVEIKRTVAAPSVFIFPPSDEQLKSGTASVVCLLNNFYPREAKVQWKVDNALQSGNSQESVTEQDSKDSTYSLSSTLTLSKADYEKHKVYACEVTHQGLSSPVTKSFNRGEC	900 pM	–	–	–	–	–	–	–
Construct 19 (antibody, human IgG1, kappa) heavy: EVQLLESGGGLVQPGGSLRLSCAASGFSLNAYSVNWVRQAPGKGLEWLGMIWGDGKIVYNSALKSRLTISKDSSKNTVYLQMNSLRAEDTAVYYCAGDGYYPYAMDNWGQGTTVTVSSASTKGPSVFPLAPSSKSTSGGTAALGCLVKDYFPEPVTVSWNSGALTSGVHTFPAVLQSSGLYSLSSVVTVPSSSLGTQTYICNVNHKPSNTKVDKKVEPKSCDKTHTCPPCPAPELAGAPSVFLFPPKPKDTLYITREPEVTCVVVDVSHEDPEVKFNWYVDGVEVHNAKTKPREEQYNSTYRVVSVLTVLHQDWLNGKEYKCKVSNKALPAPIEKTISKAKGQPREPQVYTLPPSRDELTKNQVSLTCLVKGFYPSDIAVEWESNGQPENNYKTTPPVLDSDGSFFLYSKLTVDKSRWQQGNVFSCSVMHEALHNHYTQKSLSLSPG light: DIQLTQSPSSLSASVGDRVTITCRASKSVDSYGNSFMHWYQQKPGKAPKLLIYLASNLESGVPSRFSGSGSGTDFTLTISSLQPEDFATYYCQQNNEDPRTFGGGTKVEIKRTVAAPSVFIFPPSDEQLKSGTASVVCLLNNFYPREAKVQWKVDNALQSGNSQESVTEQDSKDSTYSLSSTLTLSKADYEKHKVYACEVTHQGLSSPVTKSFNRGEC	1100 pM and 1000 pM	–	–	–	–	–	–	–
Construct 2 (antibody, human IgG1, kappa) heavy: QVTLRESGPALVKPTQTLTLTCTVSGFSLSAYSVNWIRQPPGKALEWLAMIWGDGKIVYNSALKSRLTISKDTSKNQVVLTMTNMDPVDTATYYCAGDGYYPYAMDNWGQGSLVTVSSASTKGPSVFPLAPSSKSTSGGTAALGCLVKDYFPEPVTVSWNSGALTSGVHTFPAVLQSSGLYSLSSVVTVPSSSLGTQTYICNVNHKPSNTKVDKKVEPKSCDKTHTCPPCPAPELAGAPSVFLFPPKPKDTLYITREPEVTCVVVDVSHEDPEVKFNWYVDGVEVHNAKTKPREEQYNSTYRVVSVLTVLHQDWLNGKEYKCKVSNKALPAPIEKTISKAKGQPREPQVYTLPPSRDELTKNQVSLTCLVKGFYPSDIAVEWESNGQPENNYKTTPPVLDSDGSFFLYSKLTVDKSRWQQGNVFSCSVMHEALHNHYTQKSLSLSPG light: DIVMTQSPDSLSVSLGERATINCRASKSVDSYGNSFMHWYQQKPGQPPKLLIYLASNLESGVPDRFSGSGSGTDFTLTISSLQAEDVAVYYCQQNNEDPRTFGGGTKVEIKRTVAAPSVFIFPPSDEQLKSGTASVVCLLNNFYPREAKVQWKVDNALQSGNSQESVTEQDSKDSTYSLSSTLTLSKADYEKHKVYACEVTHQGLSSPVTKSFNRGEC	900 pM	–	–	–	–	–	–	–
Construct 129 (antibody, human IgG4, kappa, also called Lebrikizumab-HC; Lebrikizumab-LC) heavy: QVTLRESGPALVKPTQTLTLTCTVSGFSLSAYSVNWIRQPPGKALEWLAMIWGDGKIVYNSALKSRLTISKDTSKNQVVLTMTNMDPVDTATYYCAGDGYYPYAMDNWGQGSLVTVSSASTKGPSVFPLAPCSRSTSESTAALGCLVKDYFPEPVTVSWNSGALTSGVHTFPAVLQSSGLYSLSSVVTVPSSSLGTKTYTCNVDHKPSNTKVDKRVESKYGPPCPSCPAPEFLGGPSVFLFPPKPKDTLMISRTPEVTCVVVDVSQEDPEVQFNWYVDGVEVHNAKTKPREEQFNSTYRVVSVLTVLHQDWLNGKEYKCKVSNKGLPSSIEKTISKAKGQPREPQVYTLPPSQEEMTKNQVSLTCLVKGFYPSDIAVEWESNGQPENNYKTTPPVLDSDGSFFLYSRLTVDKSRWQEGNVFSCSVLHEALHSYTQKSLSLSLGK light: DIVMTQSPDSLSVSLGERATINCRASKSVDSYGNSFMHWYQQKPGQPPKLLIYLASNLESGVPDRFSGSGSGTDFTLTISSLQAEDVAVYYCQQNNEDPRTFGGGTKVEIKRTVAAPSVFIFPPSDEQLKSGTASVVCLLNNFYPREAKVQWKVDNALQSGNSQESVTEQDSKDSTYSLSSTLTLSKADYEKHKVYACEVTHQGLSSPVTKSFNRGEC	–	710	36	920	0.33	210	882	239
Construct 130 (antibody, human IgG1, kappa, L234A L235A, also called Lebrikizumab-HC; Lebrikizumab-LC) heavy: QVTLRESGPALVKPTQTLTLTCTVSGFSLSAYSVNWIRQPPGKALEWLAMIWGDGKIVYNSALKSRLTISKDTSKNQVVLTMTNMDPVDTATYYCAGDGYYPYAMDNWGQGSLVTVSSASTKGPSVFPLAPSSKSTSGGTAALGCLVKDYFPEPVTVSWNSGALTSGVHTFPAVLQSSGLYSLSSVVTVPSSSLGTQTYICNVNHKPSNTKVDKKVEPKSCDKTHTCPPCPAPEAAGGPSVFLFPPKPKDTLYITREPEVTCVVVDVSHEDPEVKFNWYVDGVEVHNAKTKPREEQYNSTYRVVSVLTVLHQDWLNGKEYKCKVSNKALPAPIEKTISKAKGQPREPQVYTLPPSRDELTKNQVSLTCLVKGFYPSDIAVEWESNGQPENNYKTTPPVLDSDGSFFLYSKLTVDKSRWQQGNVFSCSVMHEALHNHYTQKSLSLSPG light: DIVMTQSPDSLSVSLGERATINCRASKSVDSYGNSFMHWYQQKPGQPPKLLIYLASNLESGVPDRFSGSGSGTDFTLTISSLQAEDVAVYYCQQNNEDPRTFGGGTKVEIKRTVAAPSVFIFPPSDEQLKSGTASVVCLLNNFYPREAKVQWKVDNALQSGNSQESVTEQDSKDSTYSLSSTLTLSKADYEKHKVYACEVTHQGLSSPVTKSFNRGEC	–	1050	27	1000	0.28	150	227	112
Construct 131 (antibody, human IgG1, kappa, L234A L235A, also called Lebrikizumab-HC; Lebrikizumab-LC) heavy: not shown light: DIVMTQSPDSLSVSLGERATINCRASKSVDSYGNSFMHWYQQKPGQPPKLLIYLASNLESGVPDRFSGSGSGTDFTLTISSLQAEDVAVYYCQQNNEDPRTFGGGTKVEIKRTVAAPSVFIFPPSDEQLKSGTASVVCLLNNFYPREAKVQWKVDNALQSGNSQESVTEQDSKDSTYSLSSTLTLSKADYEKHKVYACEVTHQGLSSPVTKSFNRGEC	–	790	19	990	0.22	130	123	75.6
Construct 96 (antibody, human IgG1, kappa, V domains shown) VH: EVQLLESGGGLVQPGGSLRLSCAASGFSLNAYSVNWVRQAPGKGLEWLGMIWGDGKIVYNSALKSRLTISKDSSKNTVYLQMNSLRAEDTAVYYCAGDGYYPYAMDNWGQGTTVTVSS VL: DIQLTQSPSSLSASVGDRVTITCRASKSVDSYGNSFMHWYQQKPGKAPKLLIYLASDLESGVPSRFSGSGSGTDFTLTISSLQPEDFATYYCQQNNEDPRTFGGGTKVEIKR	1000 pM	–	–	–	–	–	–	–
